Here are results for two compounds from publication PMC4932549, “Feasibility of Multiple Examinations Using ^68Ga-Labelled Collagelin Analogues: Organ Distribution in Rat for Extrapolation to Human Organ and Whole-Body Radiation Dosimetry” (Pharmaceuticals, 2016).

Details of data set [1]: species or system human. The conditions noted are these: in vivo. How it is done:
Human organ and total body absorbed and effective dose estimates were calculated according to the Medical Internal Radionuclide Dose (MIRD) procedure using the measured residence times and the dose rate S-values. The SUV values in rat were first multiplied with the appropriate radioactivity decay factor dependent on the time point of the data post-injection, then multiplied by standard organ masses and divided by the standard total-body weight for the standard adult man phantom obtained from the OLINDA/EXM 1.1 software (Organ Level Internal Dose Assessment Code, Vanderbilt University, Nashville, TN, USA, 2007). The values obtained correspond to the fraction of injected radioactivity (%IA) per organ in man as a function of time (Equation (2), where SUVA is the SUVs of rat organs; gorgan and kgTBweight are respectively the standard organ weight and standard total body weight of a human). (2) (%IAOrgan)human=SUVA×(gorgan/kgTBweight)human
The cumulative radioactivity for the organs was determined by integrating the area under the time-radioactivity curves for each organ using trapezoidal approximation of the collected kinetic data, followed by extrapolation of remaining points from the last time point to infinity by a single exponential fit. The residence time for each organ is equal to the number of disintegrations (MBq × h/MBq). Bone marrow residence time was assessed according to the bone marrow blood model. The residence time for the remaining carcass was calculated in the same way as for the other organs, and this value was used as input in the OLINDA software as “remainder”. The “remainder” of the body residence time was calculated from SUV due to radioactivity measured in the rest of the body after the removal of the source organs and tail. The difference between the theoretical residence time and the calculated residence time of the source organs plus the remainder of the body was assumed to have been in the tail or excreted. The kidney absorbed dose was calculated based on a multi-region kidney model phantom. The total target organ absorbed dose (D) is contributed by all source organs and is expressed by Equation (3), where Ã is the time-integrated radioactivity in the source tissue (rS) and S is the radionuclide-specific dose rate values: (3) D(rT,t)=∑rSÃ(rS,t)×S(rT←rS,t)
The similarity of the biodistribution pattern in human and rat and the homogeneous distribution of radioactivity throughout the organ were two basic assumptions considered when extrapolating rat biodistribution data to the human species for the calculation of the absorbed and total effective doses. The organ distribution study was conducted for 120 min. The residence time was determined using the trapezoidal rule, wherein the area from the injection time to the termination time was calculated. […] The values were higher for male animals. This is because the residence time is integrated over the entire tissue using the standardized human dosimetry model of organ volumes, where in the human male model, the muscle volume is around 1.65-times higher than that in the female model (28 vs. 17 kg), and the male model blood volume (5.5 L) is almost 1.5 larger than in the female model (3.8 L). The other tissues are also larger in the male model, but to a lesser extent. During the calculation of the absorbed dose in each tissue (mSv/MBq) by OLINDA, the values are again divided with each tissue’s volume, providing final dose values.
Absorbed doses and total effective doses were calculated using residence time values as the input into OLINDA/EXM 1.1, the MIRD scheme of an adult (70 kg) and recommended tissue weighting factors from the International Commission on Radiological Protection (ICRP, 2007). The absorbed doses (mGy/MBq) and total effective doses (mSv/MBq) obtained from OLINDA/EXM 1.1 calculations are presented in Table 2. […]

Data set [2] can be described thus: in vivo. The conditions noted are these: rat; for SUV / SUV at 2 h: both sexes, Sprague-Dawley, total radioactivity; for SUV / SUV at 2 h / Uptake in most of the organs (SUV): iv; for SUV at 2 h: Uptake within 120 min in blood, heart, lung, pancreas, adrenal gland, small intestine, large intestine, testis, muscle and brain (SUV). How it is done: Animal studies were performed using healthy female and male Sprague–Dawley rats: one male and one female animal per time point and tracer (Table 1). The animal experiments were approved by the local Ethics Committee for Animal Research and performed in accordance with local institutional and Swedish national rules and regulations. The animals were kept at a constant temperature (20 °C) and humidity (50%) in a 12-h light-dark cycle and given free access to food and water.
(§1) [^68Ga]Ga-NO2A-Col or [^68Ga]Ga-NODAGA-Col was injected into the tail vein of rats as a bolus with 500 µL phosphate-buffered saline (pH 7.4) as the vehicle (Table 1). The injected amount of the peptides was 0.8 ± 0.2 nanomoles. The animals were euthanized by a CO2–O2 mixture at 5, 10, 20, 40, 60 and 120 min post-injection. The radioactivity of the excised organs was measured in a well-type NaI(Tl) scintillation counter, applying correction for dead-time and radioactivity decay. The weight of the tissues was determined simultaneously. The remaining carcass was also measured in order to monitor the radioactivity elimination and recovery. Samples from blood, heart, lung, liver, spleen, adrenal glands, kidneys, intestines, with or without contents, muscle, testis, bone, brain, pancreas, urine bladder and bone marrow were collected. The radioactivity readings were decay-corrected to the time of the injection, and the results were expressed as standardized uptake values (SUV; Equation (1)), where the radioactivity of an organ and injected radioactivity was expressed in MBq, and the weight of a rat and organ was expressed in g. (1) SUV=Radioactivityorgan×weightrat/Radioactivityinjected×weightorgan

The conditions of data set [3]: rat, in vivo, iv. The method, then:
as §1, with “SUV=Radioactivityorgan×weightrat/Radioactivityinjected×weightorgan […]” for “SUV=Radioactivityorgan×weightrat/Radioactivityinjected×weightorgan”

The mark [4] stands for this setting: Uptake in most of the vital organs, including heart and lung (SUV).
[5] abbreviates: Uptake in small and large intestines (SUV).

Positions of bridges follow the written chain, without caps; N, C: chain ends. Residues, ends and D or L forms follow the SMILES beside them. *: point of attachment. NODAGA = O=C(O)CN1CCN(CC(=O)O)CCN(C(CCC(=O)*)C(=O)O)CC1; NOTA = O=C(O)CN1CCN(CC(=O)O)CCN(CC(=O)*)CC1; AEEA = NCCOCCOCC(=O)O

Regarding `CSCC[C@@H]1NC(=O)[C@H](C(C)C)NC(=O)[C@H](CCCNC(=N)N)NC(=O)CNC(=O)[C@@H]2CCCN2C(=O)[C@@H](NC(=O)COCCOCCNC(=O)CN2CCN(CC(=O)O)CCN(CC(=O)O)CC2)CSSC[C@@H](C(=O)O)NC(=O)[C@@H]2CCCN2C(=O)CNC(=O)[C@H](CCC(=O)O)NC(=O)[C@H](CC(=O)O)NC(=O)[C@H](CC(=O)O)NC(=O)CNC(=O)[C@H](CC(C)C)NC(=O)[C@H](Cc2c[nH]cn2)NC(=O)[C@H](CC(C)C)NC(=O)CNC(=O)[C@H](Cc2c[nH]cn2)NC1=O` [[^68Ga]Ga-NO2A-Col, metal not drawn] ({NOTA-AEEA}-CPGRVMHGLHLGDDEGPC-OH; disulfide 1-18), in data set [1], the “Absorbed dose in liver and spleen relative to [^68Ga]Ga-NODAGA-Col” value is reported as “two-fold lower”; the “Effective dose per administration” value is reported as 0.78–1.64 mSv; the “Estimated absorbed dose, Adrenals” value is 0.009 mGy/MBq; the “Estimated absorbed dose, Breasts” value is on record as 0.016 mGy/MBq. In data set [1], the “Estimated absorbed dose, Uterus” value is recorded as 0.019 mGy/MBq; the “Highest organ absorbed dose (kidneys)” value came out at 0.1 mGy/MBq; the “Kidney absorbed dose as share of maximum allowed dose of 50 mGy to a single organ” value is listed as “about 20%”; the “PET examinations per year before reaching the red marrow limiting dose” value is “over 1000”. In data set [1], the “Radioactivity before reaching the red marrow limiting dose” value was “over 200 GBq”, the “Radioactivity that could be administered per year if limited by kidney dose” value is listed as “over 1460 MBq” and the “Total dose per examination (PET plus CT)” value is given as 1.78–2.64. The SUV in data set [2] (Kidney uptake (SUV)) is greater than 10 SUV. Moreover, in data set [2] (setting [4]), the SUV was less than 0.5 SUV. The SUV in data set [2] (setting [5]) was less than 0.1 SUV. In data set [2] (Uptake in the brain (SUV)), the SUV was less than 0.01 SUV. In data set [2], the SUV at 2 h is less than 0.1 SUV and the “Uptake in most of the organs (SUV)” value was “below one”. The “Share of radioactivity accounted for by the single exponential blood clearance phase” value in data set [3] is reported as “over 98%”.
Consider `CSCC[C@@H]1NC(=O)[C@H](C(C)C)NC(=O)[C@H](CCCNC(=N)N)NC(=O)CNC(=O)[C@@H]2CCCN2C(=O)[C@@H](NC(=O)COCCOCCNC(=O)CCC(C(=O)O)N2CCN(CC(=O)O)CCN(CC(=O)O)CC2)CSSC[C@@H](C(=O)O)NC(=O)[C@@H]2CCCN2C(=O)CNC(=O)[C@H](CCC(=O)O)NC(=O)[C@H](CC(=O)O)NC(=O)[C@H](CC(=O)O)NC(=O)CNC(=O)[C@H](CC(C)C)NC(=O)[C@H](Cc2c[nH]cn2)NC(=O)[C@H](CC(C)C)NC(=O)CNC(=O)[C@H](Cc2c[nH]cn2)NC1=O` (some centres unmarked) [[^68Ga]Ga-NODAGA-Col, metal not drawn] ({NODAGA-AEEA}-CPGRVMHGLHLGDDEGPC-OH; disulfide 1-18), for which, in data set [1], the “Effective dose per administration” value is recorded as 0.78–1.64 mSv; the “Estimated absorbed dose, Brain” value was 0.002 mGy/MBq; the “Estimated absorbed dose, Breasts” value is recorded as 0.016 mGy/MBq; the “Estimated absorbed dose, Spleen” value was 0.011 mGy/MBq. In data set [1], the “Estimated absorbed dose, Uterus” value is reported as 0.019 mGy/MBq; the “Highest organ absorbed dose (kidneys)” value was 0.1 mGy/MBq; the “Increase of liver residence time/absorbed dose versus [^68Ga]Ga-NO2A-Col” value is listed as 100%; the “Kidney absorbed dose as share of maximum allowed dose of 50 mGy to a single organ” value is recorded as roughly 21%. Also, in data set [1], the “PET examinations per year before reaching the red marrow limiting dose” value is recorded as “over 1000”, the “Radioactivity before reaching the red marrow limiting dose” value is on record as “over 200 GBq”, the “Radioactivity that could be administered per year if limited by kidney dose” value was “over 1460 MBq” and the “Total dose per examination (PET plus CT)” value was 1.78–2.64. Moreover, the SUV in data set [2] (Kidney uptake (SUV)) was greater than 10 SUV. Moreover, the SUV in data set [2] (setting [4]) was less than 0.5 SUV. Also, the SUV in data set [2] (setting [5]) was less than 0.1 SUV. Besides, the SUV in data set [2] (Uptake in the brain (SUV)) was less than 0.01 SUV. For the same compound, in data set [2], the SUV at 2 h is less than 0.1 SUV; the “Radioactivity that stayed in liver and spleen” value is listed as “Over 85%”; the “Uptake in most of the organs (SUV)” value is “below one”. Moreover, the “Share of radioactivity accounted for by the single exponential blood clearance phase” value in data set [3] is recorded as “over 98%”.
